T1: Human thromboxane synthase (TBXAS1) (human, UniProt P24557 1-533)
T1 construct: thromboxane synthase (TBXAS1, CYP5A1), human, recombinant; Covalently immobilised on CNBr-Sepharose 4B (fishing) or on a CM5 chip (SPR); also used as analyte; also called CYP5A1
T1 sequence (looked up): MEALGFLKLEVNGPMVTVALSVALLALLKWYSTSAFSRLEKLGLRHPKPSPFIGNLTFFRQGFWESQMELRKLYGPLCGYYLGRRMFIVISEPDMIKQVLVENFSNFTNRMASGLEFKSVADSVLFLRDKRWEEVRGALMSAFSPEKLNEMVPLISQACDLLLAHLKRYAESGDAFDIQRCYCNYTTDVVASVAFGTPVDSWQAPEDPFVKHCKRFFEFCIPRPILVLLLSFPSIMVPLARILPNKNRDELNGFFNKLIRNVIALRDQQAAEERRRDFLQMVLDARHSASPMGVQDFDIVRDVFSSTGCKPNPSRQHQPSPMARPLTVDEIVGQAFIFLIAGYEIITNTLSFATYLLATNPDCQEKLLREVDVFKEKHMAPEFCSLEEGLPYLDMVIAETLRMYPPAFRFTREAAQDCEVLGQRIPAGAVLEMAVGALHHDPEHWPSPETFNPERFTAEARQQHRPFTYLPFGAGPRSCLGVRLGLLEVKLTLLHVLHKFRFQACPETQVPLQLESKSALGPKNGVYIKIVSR


How the values were obtained:
[1] = target: T1, Human thromboxane synthase (TBXAS1); assay: SPR; as a2, with isatin added to the analyte samples at a final concentration of 100 μM and incubated for 15 min; conditions: both partners purified
[2] = target: T1, Human thromboxane synthase (TBXAS1); assay: SPR; Biacore 3000; TBXAS1 amine-coupled to a CM5 chip (about 7,500 RU); analytes 50 nM to 5 μM injected for 10 min at 5 μL/min; control channel without protein; conditions: both partners purified

Binder	fold decrease in koff with 100 μM isatin against no isatin [1] [fold]	fold increase in affinity with 100 μM isatin against no isatin [1] [fold]	fold increase in kon with 100 μM isatin against no isatin [1] [fold]	Kd [2] [nM]	fold difference of koff against TBXAS1•CYP11B2 (CYP2E1 the slower) [2] [fold]	fold difference of kon against TBXAS1•CYP11B2 (CYP2E1 the slower) [2] [fold]
4-nitrophenol-2-hydroxylase (CYP2E1), recombinant (enzyme, UniProt P05181 1-493, looked up, cytochrome P450 2E1, recombinant; also called cytochrome P450 2E1) MSALGVTVALLVWAAFLLLVSMWRQVHSSWNLPPGPFPLPIIGNLFQLELKNIPKSFTRLAQRFGPVFTLYVGSQRMVVMHGYKAVKEALLDYKDEFSGRGDLPAFHAHRDRGIIFNNGPTWKDIRRFSLTTLRNYGMGKQGNESRIQREAHFLLEALRKTQGQPFDPTFLIGCAPCNVIADILFRKHFDYNDEKFLRLMYLFNENFHLLSTPWLQLYNNFPSFLHYLPGSHRKVIKNVAEVKEYVSERVKEHHQSLDPNCPRDLTDCLLVEMEKEKHSAERLYTMDGITVTVADLFFAGTETTSTTLRYGLLILMKYPEIEEKLHEEIDRVIGPSRIPAIKDRQEMPYMDAVVHEIQRFITLVPSNLPHEATRDTIFRGYLIPKGTVVVPTLDSVLYDNQEFPDPEKFKPEHFLNENGKFKYSDYFKPFSTGKRVCAGEGLARMELFLLLCAILQHFNLKPLVDPKDIDLSPIHIGFGCIPPRYKLCVIPRS	2.5	5	2	430	15	10
aldosterone synthase (CYP11B2) (enzyme, UniProt P19099 25-503, looked up, aldosterone synthase (CYP11B2), mitochondrial cytochrome P450, recombinant) GTRAARAPRTVLPFEAMPQHPGNRWLRLLQIWREQGYEHLHLEMHQTFQELGPIFRYNLGGPRMVCVMLPEDVEKLQQVDSLHPCRMILEPWVAYRQHRGHKCGVFLLNGPEWRFNRLRLNPDVLSPKAVQRFLPMVDAVARDFSQALKKKVLQNARGSLTLDVQPSIFHYTIEASNLALFGERLGLVGHSPSSASLNFLHALEVMFKSTVQLMFMPRSLSRWISPKVWKEHFEAWDCIFQYGDNCIQKIYQELAFNRPQHYTGIVAELLLKAELSLEAIKANSMELTAGSVDTTAFPLLMTLFELARNPDVQQILRQESLAAAASISEHPQKATTELPLLRAALKETLRLYPVGLFLERVVSSDLVLQNYHIPAGTLVQVFLYSLGRNAALFPRPERYNPQRWLDIRGSGRNFHHVPFGFGMRQCLGRRLAEAEMLLLLHHVLKHFLVETLTQEDIKMVYSFILRPGTSPLLTFRAIN	–	–	–	690	–	–
